Data reported in US20250269048A1 (BIVICTRIX, published 2025).
Residue numbers refer to the chain shown, from its start. One block for each binder: values may come before it.

What was measured:
human CD7 [1] = target: T1, human CD7 (human, UniProt P09564 26-180, limits assumed); test: SPR (Kd); value of the CD7 arm 7-PP-6
T1 construct: The construct is not described
T1 sequence (looked up): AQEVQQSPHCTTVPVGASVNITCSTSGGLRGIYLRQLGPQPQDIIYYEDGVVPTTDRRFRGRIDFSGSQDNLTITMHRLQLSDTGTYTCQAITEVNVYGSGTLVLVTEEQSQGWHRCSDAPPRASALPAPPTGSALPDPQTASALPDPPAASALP

human CD33 = target: T2, human CD33 (human, UniProt P20138 18-259, limits assumed); test: SPR (Kd); value of the CD33 arm 33-PP-1 WT
T2 construct: The construct is not described
T2 sequence (P20138 18-259 limits assumed): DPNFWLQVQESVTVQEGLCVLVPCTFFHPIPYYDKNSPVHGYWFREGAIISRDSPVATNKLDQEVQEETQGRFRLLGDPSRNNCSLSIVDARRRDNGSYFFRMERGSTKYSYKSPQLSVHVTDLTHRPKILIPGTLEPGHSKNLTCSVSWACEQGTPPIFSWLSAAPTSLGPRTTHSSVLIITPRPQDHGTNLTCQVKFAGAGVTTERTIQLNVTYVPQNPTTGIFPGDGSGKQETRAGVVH

human CD7 [2] = target: T1, human CD7; test: SPR (Kd); value of the CD7 arm 7-PP-7
human CD7 [3] = target: T1, human CD7; test: SPR; reference 7-AA-WT
human CD7 on cells [4] = target: T3, human CD7 on cells (human, UniProt P09564 26-240); test: FACS; reference 7-PP-1 WT (itself)
T3 construct: whole, on cells; Target of the FACS and cell capture values and of the kill assays on CD7 single positive cells; also called CD7+ cells; Jurkat (CD33-/CD7+)
T3 sequence (looked up): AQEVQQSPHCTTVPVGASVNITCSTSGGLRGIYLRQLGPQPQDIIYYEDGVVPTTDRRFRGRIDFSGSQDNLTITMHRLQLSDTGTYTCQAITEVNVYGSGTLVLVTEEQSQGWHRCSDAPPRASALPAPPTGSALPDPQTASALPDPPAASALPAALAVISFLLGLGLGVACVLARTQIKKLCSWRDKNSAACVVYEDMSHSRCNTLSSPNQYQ

human CD7 on cells [5] = target: T3, human CD7 on cells; test: FACS; cells not named
human CD7 [6] = target: T1, human CD7; test: SPR

- Fold reduction in binding affinity vs 7-PP-1 WT (human CD7 [1]): 12.7 fold
- Fold reduction in binding affinity vs 33-PP-1 WT (human CD33): 0 fold
B1: BVX130 (bispecific antibody)
heavy: QVQLQESGAELVKPGASVKLSCKASGYTFTSYWMHWVKQRPGQGLEWIGKINPSNGRTNYNEKFKSKATLTVDKSSSTAYMQLSSLTSEDSAVYYCARGGVYYALYYYALDYWGQGTTVTVSSASTKGPSVFPLAPSSKSTSGGTAALGCLVKDYFPEPVTVSWNSGALTSGVHTFPAVLQSSGLYSLSSVVTVPSSSLGTQTYCCNVNHKPSNTKVDKKVEPKSCDKT
light: DIELTQSPATLSVTPGDSVSLSCRASQSISNNLHWYQQKSHESPRLLIKSASQSISGIPSRFSGSGSGTDFTLSINSVETEDFGMYFCQQSNSWPYTFGGGTKLEIKRTVAAPSVFIFPPSDEQLKSGTASVVCLLNNFYPREAKVQWKVDNALQSGNSQESVTEQDSKDSTYSLSSTLTLSKADYEKHKVYACEVTHQGLSSPVTKSFNRGEC
VH: EVQLVQSGAEVKKPGSSVKVSCKASGYTITDSNIHWVRQAPGQSLEWIGYIYPYNGGTDYNQKFKNRATLTVDNPTNTAYMELSSLRSEDTAFYYCVNGNPWLAYWGQGTLVTVSS
VL: DIQLTQSPSTLSASVGDRVTIICRASESLDNYGIRFLTWFQQKPGKAPKLLMYAASNQGSGVPSRFSGSGSGTEFTLTISSLQPDDFATYYCQQTKEVPWSFGQGTKLEIK
notes: bi-Fab; also called CD33-PP-1 WT/CD7-PP-6

- Fold reduction in binding affinity vs 7-PP-1 WT (human CD7 [2]): 152 fold
- Fold reduction in binding affinity vs 33-PP-1 WT (human CD33): 0 fold
B2: BVX140 (bispecific antibody)
heavy: B1 heavy with R57G, A104D, Y108A
light: B1 light
VH: B1 VH
VL: B1 VL
notes: bi-Fab; also called CD33-PP-1 WT/CD7-PP-7

- Fold Reduction in binding affinity compared to WT (Kd) (human CD7 [3]): 1.36 fold
- FACS fold reduction compared to PP WT (human CD7 on cells [4]): 1 fold
- FACS binding (human CD7 on cells [5]): 0.53
- Kd (human CD7 [6]): 3.56 nM
B3: CD7-PP-1-WT CD7 binding arm (Fab, V domains shown)
VH: QVQLQESGAELVKPGASVKLSCKASGYTFTSYWMHWVKQRPGQGLEWIGKINPSNGRTNYNEKFKSKATLTVDKSSSTAYMQLSSLTSEDSAVYYCARGGVYYDLYYYALDYWGQGTTVTVSS
VL: DIELTQSPATLSVTPGDSVSLSCRASQSISNNLHWYQQKSHESPRLLIKSASQSISGIPSRFSGSGSGTDFTLSINSVETEDFGMYFCQQSNSWPYTFGGGTKLEIKR
notes: also called PP WT
